US10967068B2, “Stability-modulating linkers for use with antibody drug conjugates” (priority 2014, dated 2021)
*1 amine or outer side, *2 acyl side, *3 side chain or, on linkers, in order; H or OH if unused. Where a SMILES comes first, the peptide text is derived from it. [ ]: non-standard residue; d: D form. The star is where a group is joined. Dolaproine = CO[C@@H]([C@@H]1CCCN1)[C@@H](C)C(=O)O; Acetyl(2-(4-imidazolyl)) = O=C(Cc1c[nH]cn1)*; Dil = CC[C@H](C)[C@H](NC)[C@@H](CC(=O)O)OC; Imidazole4carbonyl = O=C(c1cnc[nH]1)*; PABC = O=C(OCc1ccc(N[*:1])cc1)[*:2]; Doe = c1ccc(C[C@H](N*)c2nccs2)cc1; Cit = NC(=O)NCCC[C@H](N)C(=O)O; Isobutyryl = CC(C)C(=O)*; PhAc = O=C(Cc1ccccc1)*; Aib = CC(C)(N)C(=O)O; CO = O=C([*:1])[*:2]; Piv = CC(C)(C)C(=O)*; Glycolyl = O=C(CO)*

Test: In Vitro Stability Assay—Mouse Plasma
Format: in vitro ADME
Conditions: for Conjugate stability (%): % DAR remaining after plasma 3 or 4.5 days; for DAR: before plasma incubation
Description: 100-200 ug of ADC were incubated in mouse plasma (provided by Bioreclamation) supplemented with 1×PBS to the final ADC concentration of 0.125 mg/mL. Following incubation for 3-7 days, samples were diluted with an equal volume of 1×PBS, and ADCs were isolated using Trop2 antigen coupled to CNBr-activated Sepharose (GE Healthcare) using standard protocols. Drug-antibody ratios were assessed before and after in vitro exposure using HIC methods and mass spectrometry.
DAR values for conjugates purified after plasma incubation were compared to DAR values prior to plasma treatment.

CC[C@H](C)[C@@H]([C@@H](CC(=O)N1CCC[C@H]1[C@H](OC)[C@@H](C)C(=O)N[C@@H](Cc1ccccc1)c1nccs1)OC)N(C)C(=O)[C@@H](NC(=O)C(C)(C)NC(=O)OCc1ccc(NC(=O)[C@H](CCCNC(N)=O)NC(=O)[C@@H](NC(=O)[C@H](CCCCN)NC(=O)C(C)(C)C)C(C)C)cc1)C(C)C [Example 2, N˜2˜-(2,2-Dimethylpropanoyl)-L-lysyl-L-valyl-N-{4-[(8S,11S,12R)-11-[(2S)-butan-2-yl]-12-(2-{(2S)-2-[(1R,2R)-1-methoxy-2-methyl-3-oxo-3-{[(1S)-2-phenyl-1-(1,3-thiazol-2-yl)ethyl]amino}propyl]pyrrolidin-1-yl}-2-oxoethyl)-5,5,10-trimethyl-3,6,9-trioxo-8-(propan-2-yl)-2,13-dioxa-4,7,10-triazatetradec-1-yl]phenyl}-N˜5˜-carbamoyl-L-ornithinamide] (Piv-KV[Cit][PABC][Aib]V[Dil][Dolaproine]-Doe)
DAR after plasma incubation for 3 to 4.5 days (attachment position L11B): 0
Conjugate stability (%) (attachment position L11B): 0%
DAR (attachment position L11B): 1.54

CC[C@H](C)[C@@H]([C@@H](CC(=O)N1CCC[C@H]1[C@H](OC)[C@@H](C)C(=O)N[C@@H](Cc1ccccc1)c1nccs1)OC)N(C)C(=O)[C@@H](NC(=O)C(C)(C)NC(=O)OCc1ccc(NC(=O)[C@H](CCCNC(N)=O)NC(=O)[C@@H](NC(=O)[C@H](CCCCN)NC(=O)Cc2ccccc2)C(C)C)cc1)C(C)C [Example 3, N˜2˜-(Phenylacetyl)-L-lysyl-L-valyl-N-{4-[(8S,11S,12R)-11-[(2S)-butan-2-yl]-12-(2-{(2S)-2-[(1R,2R)-1-methoxy-2-methyl-3-oxo-3-{[(1S)-2-phenyl-1-(1,3-thiazol-2-yl)ethyl]amino}propyl]pyrrolidin-1-yl}-2-oxoethyl)-5,5,10-trimethyl-3,6,9-trioxo-8-(propan-2-yl)-2,13-dioxa-4,7,10-triazatetradec-1-yl]phenyl}-N˜5˜-carbamoyl-L-ornithinamide] (PhAc-KV[Cit][PABC][Aib]V[Dil][Dolaproine]-Doe)
DAR after plasma incubation for 3 to 4.5 days (attachment position L11B): 0
Conjugate stability (%) (attachment position L11B): 0%
DAR (attachment position L11B): 1.66

CC[C@H](C)[C@@H]([C@@H](CC(=O)N1CCC[C@H]1[C@H](OC)[C@@H](C)C(=O)N[C@@H](Cc1ccccc1)c1nccs1)OC)N(C)C(=O)[C@@H](NC(=O)C(C)(C)NC(=O)OCc1ccc(NC(=O)[C@H](CCCNC(N)=O)NC(=O)[C@@H](NC(=O)[C@H](CCCCN)NC(=O)c2cnc[nH]2)C(C)C)cc1)C(C)C [Example 4, N˜2˜-(1H-Imidazol-5-ylcarbonyl)-L-lysyl-L-valyl-N-{4-[(8S,11S,12R)-11-[(2S)-butan-2-yl]-12-(2-{(2S)-2-[(1R,2R)-1-methoxy-2-methyl-3-oxo-3-{[(1S)-2-phenyl-1-(1,3-thiazol-2-yl)ethyl]amino}propyl]pyrrolidin-1-yl}-2-oxoethyl)-5,5,10-trimethyl-3,6,9-trioxo-8-(propan-2-yl)-2,13-dioxa-4,7,10-triazatetradec-1-yl]phenyl}-N˜5˜-carbamoyl-L-ornithinamide] (Imidazole4carbonyl-KV[Cit][PABC][Aib]V[Dil][Dolaproine]-Doe)
DAR after plasma incubation for 3 to 4.5 days (attachment position H16): 1.89
Conjugate stability (%) (attachment position H16): 100%
DAR (attachment position H16): 1.84

CC[C@H](C)[C@@H]([C@@H](CC(=O)N1CCC[C@H]1[C@H](OC)[C@@H](C)C(=O)N[C@@H](Cc1ccccc1)c1nccs1)OC)N(C)C(=O)[C@@H](NC(=O)C(C)(C)NC(=O)OCc1ccc(NC(=O)[C@H](CCCNC(N)=O)NC(=O)[C@@H](NC(=O)[C@H](CCCCN)NC(=O)Cc2cnc[nH]2)C(C)C)cc1)C(C)C [Example 5, N˜2˜-(1H-Imidazol-5-ylacetyl)-L-lysyl-L-valyl-N-{4-[(8S,11S,12R)-11-[(2S)-butan-2-yl]-12-(2-{(2S)-2-[(1R,2R)-1-methoxy-2-methyl-3-oxo-3-{[(1S)-2-phenyl-1-(1,3-thiazol-2-yl)ethyl]amino}propyl]pyrrolidin-1-yl}-2-oxoethyl)-5,5,10-trimethyl-3,6,9-trioxo-8-(propan-2-yl)-2,13-dioxa-4,7,10-triazatetradec-1-yl]phenyl}-N˜5˜-carbamoyl-L-ornithinamide] ({Acetyl(2-(4-imidazolyl))}-KV[Cit][PABC][Aib]V[Dil][Dolaproine]-Doe)
DAR after plasma incubation for 3 to 4.5 days (attachment position H16): 2.0
Conjugate stability (%) (attachment position H16): 100%
DAR (attachment position H16): 1.96

CC[C@H](C)[C@@H]([C@@H](CC(=O)N1CCC[C@H]1[C@H](OC)[C@@H](C)C(=O)N[C@@H](Cc1ccccc1)c1nccs1)OC)N(C)C(=O)[C@@H](NC(=O)C(C)(C)NC(=O)OCc1ccc(NC(=O)[C@H](CCCNC(N)=O)NC(=O)[C@@H](NC(=O)[C@H](CCCCN)NC(=O)C(C)C)C(C)C)cc1)C(C)C [Example 7, N˜2˜-(2-Methylpropanoyl)-L-lysyl-L-valyl-N-{4-[(8S,11S,12R)-11-[(2S)-butan-2-yl]-12-(2-{(2S)-2-[(1R,2R)-1-methoxy-2-methyl-3-oxo-3-{[(1S)-2-phenyl-1-(1,3-thiazol-2-yl)ethyl]amino}propyl]pyrrolidin-1-yl}-2-oxoethyl)-5,5,10-trimethyl-3,6,9-trioxo-8-(propan-2-yl)-2,13-dioxa-4,7,10-triazatetradec-1-yl]phenyl}-N˜5˜-carbamoyl-L-ornithinamide] (Isobutyryl-KV[Cit][PABC][Aib]V[Dil][Dolaproine]-Doe)
DAR after plasma incubation for 3 to 4.5 days (attachment position L11B): 0
Conjugate stability (%) (attachment position L11B): 0%
DAR (attachment position L11B): 1.51

CC[C@H](C)[C@@H]([C@@H](CC(=O)N1CCC[C@H]1[C@H](OC)[C@@H](C)C(=O)N[C@@H](Cc1ccccc1)c1nccs1)OC)N(C)C(=O)[C@@H](NC(=O)C(C)(C)NC(=O)OCc1ccc(NC(=O)[C@H](CCCNC(N)=O)NC(=O)[C@@H](NC(=O)[C@H](CCCCN)NC(=O)CO)C(C)C)cc1)C(C)C [Example 25, N˜2˜-(hydroxyacetyl)-L-lysylvalyl-N-{4-[(8S,11S,12R)-11-[(2S)-butan-2-yl]-12-(2-{(2S)-2-[(1R,2R)-1-methoxy-2-methyl-3-oxo-3-{[(1S)-2-phenyl-1-(1,3-thiazol-2-yl)ethyl]amino}propyl]pyrrolidin-1-yl}-2-oxoethyl)-5,5,10-trimethyl-3,6,9-trioxo-8-(propan-2-yl)-2,13-dioxa-4,7,10-triazatetradec-1-yl]phenyl}-N˜5˜-carbamoyl-L-ornithinamide] (Glycolyl-KV[Cit][PABC][Aib]V[Dil][Dolaproine]-Doe)
Conjugate stability (%) (attachment position L11B): 84%
DAR (attachment position L11B): 1.91

CC[C@H](C)[C@@H]([C@@H](CC(=O)N1CCC[C@H]1[C@H](OC)[C@@H](C)C(=O)N[C@@H](Cc1ccccc1)c1nccs1)OC)N(C)C(=O)[C@@H](NC(=O)C(C)(C)NC(=O)OCc1ccc(NC(=O)[C@H](CCCNC(N)=O)NC(=O)[C@@H](NC(=O)[C@H](CCCCN)NC(=O)NC)C(C)C)cc1)C(C)C [Example 26, N˜2˜-(methylcarbamoyl)-L-lysylvalyl-N-{4-[(8S,11S,12R)-11-[(2S)-butan-2-yl]-12-(2-{(2S)-2-[(1R,2R)-1-methoxy-2-methyl-3-oxo-3-{[(1S)-2-phenyl-1-(1,3-thiazol-2-yl)ethyl]amino}propyl]pyrrolidin-1-yl}-2-oxoethyl)-5,5,10-trimethyl-3,6,9-trioxo-8-(propan-2-yl)-2,13-dioxa-4,7,10-triazatetradec-1-yl]phenyl}-N˜5˜-carbamoyl-L-ornithinamide] ({NHMe-CO}-KV[Cit][PABC][Aib]V[Dil][Dolaproine]-Doe)
DAR after plasma incubation for 3 to 4.5 days (attachment position L11B): 1.16
Conjugate stability (%) (attachment position L11B): 60%
DAR (attachment position L11B): 1.92
